Sequences and labels used below:
T1: EsCas13d, nuclease-dead (Eubacterium siraeum, UniProt B0MS50, R295A;H300A;R849A;H854A)
T1 sequence: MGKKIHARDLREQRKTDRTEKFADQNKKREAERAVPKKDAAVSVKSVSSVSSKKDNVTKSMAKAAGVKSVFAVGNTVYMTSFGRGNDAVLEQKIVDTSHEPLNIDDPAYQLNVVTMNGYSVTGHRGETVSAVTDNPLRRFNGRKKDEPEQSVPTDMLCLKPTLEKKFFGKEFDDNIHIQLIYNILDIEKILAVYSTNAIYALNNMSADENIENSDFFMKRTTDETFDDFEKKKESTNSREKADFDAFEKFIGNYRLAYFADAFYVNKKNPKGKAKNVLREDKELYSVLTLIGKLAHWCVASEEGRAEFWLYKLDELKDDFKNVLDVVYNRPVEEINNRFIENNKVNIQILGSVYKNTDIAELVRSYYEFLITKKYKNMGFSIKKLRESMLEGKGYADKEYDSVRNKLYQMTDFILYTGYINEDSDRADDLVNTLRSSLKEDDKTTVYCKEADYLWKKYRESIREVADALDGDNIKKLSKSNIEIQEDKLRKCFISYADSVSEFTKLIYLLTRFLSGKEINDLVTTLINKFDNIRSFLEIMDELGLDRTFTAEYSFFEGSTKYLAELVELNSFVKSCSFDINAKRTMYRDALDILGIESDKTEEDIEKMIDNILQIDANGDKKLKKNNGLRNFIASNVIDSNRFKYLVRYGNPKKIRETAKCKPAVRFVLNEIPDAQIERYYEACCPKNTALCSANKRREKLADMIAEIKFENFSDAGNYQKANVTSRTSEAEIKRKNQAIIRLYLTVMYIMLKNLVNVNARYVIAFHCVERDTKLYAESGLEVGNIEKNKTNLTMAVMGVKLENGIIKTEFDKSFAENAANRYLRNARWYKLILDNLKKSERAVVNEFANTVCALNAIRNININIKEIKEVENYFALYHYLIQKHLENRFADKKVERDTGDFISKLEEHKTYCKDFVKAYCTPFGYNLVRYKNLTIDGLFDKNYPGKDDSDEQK

B1: target 1 G5C,C21U (mixed)
RNA 1: CACCCGUGCAAAAAUGCAGGGGUCUAAAACUGAGCGGAUAACCUCUCUAUGG
RNA 2: GGGAAUGGAUCCACAUCUACGAAUUCGUACUAUAGAGAGGUUAUCCCCUCACCGAGAUCGGAAGAGCACACGU
B2: target 1 insC 3' of 20,insU 3' of 1 (mixed)
RNA 1: B1 RNA 1
RNA 2: GGGAAUGGAUCCACAUCUACGAAUUCGUACCACUAGAGAGGUUAUCCGCUCAUCCGAGAUCGGAAGAGCACACGU
B3: target 1 A9G,C22A (mixed)
RNA 1: B1 RNA 1
RNA 2: B1 RNA 2 with C30A, U31C, A43G, C47G
B4: target 1 A9G,G15U (mixed)
RNA 1: B1 RNA 1
RNA 2: B1 RNA 2 with U31C, G37U, A43G, C47G
B5: target 2 MT 5'PFS CGC 3'PFS CUA (mixed)
RNA 1: CACCCGUGCAAAAUUGCAGGGGUCUAAAACCUUCUCCAAAUUGUUUCAUCCU
RNA 2: GGGAAUGGAUCCACAUCUACGAAUUCCGCAGGAUGAAACAAUUUGGAGAAGCUAAGAUCGGAAGAGCACACGU
B6: target 2 MT 5'PFS UGG 3'PFS CAC (mixed)
RNA 1: B5 RNA 1
RNA 2: B5 RNA 2 with C27U, C29G, U53A, A54C
B7: target 2 MT 5'PFS ACA 3'PFS AGA (mixed)
RNA 1: B5 RNA 1
RNA 2: B5 RNA 2 with C27A, G28C, C29A, C52A, U53G
B8: target 2 MT 5'PFS UUA 3'PFS UUU (mixed)
RNA 1: B5 RNA 1
RNA 2: B5 RNA 2 with C27U, G28U, C29A, C52U, A54U
B9: target 2 MT 5'PFS AGA 3'PFS UCC (mixed)
RNA 1: B5 RNA 1
RNA 2: B5 RNA 2 with C27A, C29A, C52U, U53C, A54C
B10: target 2 MT 5'PFS GCU 3'PFS UAU (mixed)
RNA 1: B5 RNA 1
RNA 2: B5 RNA 2 with C27G, G28C, C29U, C52U, U53A, A54U
B11: target 2 MT 5'PFS UGG 3'PFS AGU (mixed)
RNA 1: B5 RNA 1
RNA 2: B5 RNA 2 with C27U, C29G, C52A, U53G, A54U
B12: target 2 MT 5'PFS UGG 3'PFS AAC (mixed)
RNA 1: B5 RNA 1
RNA 2: B5 RNA 2 with C27U, C29G, C52A, U53A, A54C
B13: target 2 MT 5'PFS ACA 3'PFS AGC (mixed)
RNA 1: B5 RNA 1
RNA 2: B5 RNA 2 with C27A, G28C, C29A, C52A, U53G, A54C
B14: target 2 MT 5'PFS CAU 3'PFS UUG (mixed)
RNA 1: B5 RNA 1
RNA 2: B5 RNA 2 with G28A, C29U, C52U, A54G
B15: target 2 MT 5'PFS AGA 3'PFS UCG (mixed)
RNA 1: B5 RNA 1
RNA 2: B5 RNA 2 with C27A, C29A, C52U, U53C, A54G
B16: target 2 MT 5'PFS CGC 3'PFS CUG (mixed)
RNA 1: B5 RNA 1
RNA 2: B5 RNA 2 with A54G
B17: target 2 MT 5'PFS ACC 3'PFS CAC (mixed)
RNA 1: B5 RNA 1
RNA 2: B5 RNA 2 with C27A, G28C, U53A, A54C
B18: target 2 MT 5'PFS UCA 3'PFS CAU (mixed)
RNA 1: B5 RNA 1
RNA 2: B5 RNA 2 with C27U, G28C, C29A, U53A, A54U
B19: target 2 MT 5'PFS CAU 3'PFS UUA (mixed)
RNA 1: B5 RNA 1
RNA 2: B5 RNA 2 with G28A, C29U, C52U
B20: target 2 MT 5'PFS AGA 3'PFS UCA (mixed)
RNA 1: B5 RNA 1
RNA 2: B5 RNA 2 with C27A, C29A, C52U, U53C
B21: target 2 MT 5'PFS GUC 3'PFS UAG (mixed)
RNA 1: B5 RNA 1
RNA 2: B5 RNA 2 with C27G, G28U, C52U, U53A, A54G
B22: target 2 MT 5'PFS ACA 3'PFS CGC (mixed)
RNA 1: B5 RNA 1
RNA 2: B5 RNA 2 with C27A, G28C, C29A, U53G, A54C
B23: target 2 MT 5'PFS GUC 3'PFS UAA (mixed)
RNA 1: B5 RNA 1
RNA 2: B5 RNA 2 with C27G, G28U, C52U, U53A
B24: target 2 MT 5'PFS CAU 3'PFS UUC (mixed)
RNA 1: B5 RNA 1
RNA 2: B5 RNA 2 with G28A, C29U, C52U, A54C
B25: target 2 MT 5'PFS ACA 3'PFS UCA (mixed)
RNA 1: B5 RNA 1
RNA 2: B5 RNA 2 with C27A, G28C, C29A, C52U, U53C
B26: target 2 MT 5'PFS ACA 3'PFS CGG (mixed)
RNA 1: B5 RNA 1
RNA 2: B5 RNA 2 with C27A, G28C, C29A, U53G, A54G
B27: target 2 MT 5'PFS UGU 3'PFS AUC (mixed)
RNA 1: B5 RNA 1
RNA 2: B5 RNA 2 with C27U, C29U, C52A, A54C
B28: target 2 MT 5'PFS UGU 3'PFS AUA (mixed)
RNA 1: B5 RNA 1
RNA 2: B5 RNA 2 with C27U, C29U, C52A
B29: target 2 MT 5'PFS UGG 3'PFS AGC (mixed)
RNA 1: B5 RNA 1
RNA 2: B5 RNA 2 with C27U, C29G, C52A, U53G, A54C
B30: target 2 MT 5'PFS CGC 3'PFS CUC (mixed)
RNA 1: B5 RNA 1
RNA 2: B5 RNA 2 with A54C
B31: target 2 MT 5'PFS GUC 3'PFS UAC (mixed)
RNA 1: B5 RNA 1
RNA 2: B5 RNA 2 with C27G, G28U, C52U, U53A, A54C
B32: target 2 MT 5'PFS ACA 3'PFS AGG (mixed)
RNA 1: B5 RNA 1
RNA 2: B5 RNA 2 with C27A, G28C, C29A, C52A, U53G, A54G
B33: target 2 MT 5'PFS GUC 3'PFS UAU (mixed)
RNA 1: B5 RNA 1
RNA 2: B5 RNA 2 with C27G, G28U, C52U, U53A, A54U
B34: target 2 MT 5'PFS UAU 3'PFS GAG (mixed)
RNA 1: B5 RNA 1
RNA 2: B5 RNA 2 with C27U, G28A, C29U, C52G, U53A, A54G
B35: target 2 MT 5'PFS CAU 3'PFS UUU (mixed)
RNA 1: B5 RNA 1
RNA 2: B5 RNA 2 with G28A, C29U, C52U, A54U

Substitutions are numbered along the chain they refer to. In names and notes the source's numbering stands.

For this data set, the target named is T1, EsCas13d, nuclease-dead. Briefly: crRNA (strand 1, pre-loaded); Mg2+; 40 mM Tris-HCl pH 7.5, 150 mM NaCl, 6 mM MgCl2, 1 mM DTT, 0.1% Tween-20, 0.2 mg/ml BSA; 25 C; 10 min per concentration, then washed. Conditions: tags: His6-TwinStrep-SUMO cleaved; N-terminal SNAP kept (SNAP-Surface 488); label: 3' end held by stalled T7 RNA polymerase.
B1 had a dissociation constant (Kd) of 7.1 ± 0.4 nM.

Molecule B2 came in with a Kd of 7.34 ± 0.35 nM.

Molecule B3 yielded a Kd of 21.9 ± 1.3 nM.

Consider B4, for which the equilibrium dissociation constant (Kd) is 17.3 ± 1.4 nM.

Molecule B5 came in with a dissociation constant Kd of 7.4 ± 1.8 nM.

As to B6, binding was characterised by a dissociation constant (Kd) of 15.3 ± 2.5 nM.

With B7, the Kd stood at 3.6 ± 1.3 nM.

For B8, the Kd is roughly 70 nM.

Regarding B9, binding was characterised by a dissociation constant (Kd) of 43 ± 15 nM.

B10 registered a Kd of 11 ± 4 nM.

B11 had an equilibrium dissociation constant (Kd) of 8 ± 0.8 nM.

For B12, the equilibrium dissociation constant (Kd) was 7.1 ± 0.6 nM.

In turn, B13 displayed a Kd of 4.7 ± 1.1 nM.

B14 showed an equilibrium dissociation constant (Kd) of 4.5 ± 0.4 nM.

B15 showed a Kd of 14 ± 4 nM.

With B16, the dissociation constant Kd came out at 8 ± 1.9 nM.

For the molecule B17, binding was characterised by a dissociation constant (Kd) of 7.4 ± 1.6 nM.

Regarding B18, the dissociation constant (Kd) was determined as 4.8 ± 1.1 nM.

B19 returned a Kd of 5.2 ± 0.9 nM.

B20: the dissociation constant Kd is 8.2 ± 1.8 nM.

As to B21, the dissociation constant (Kd) came out at 14 ± 2 nM.

B22 displayed a Kd of 4.9 ± 0.7 nM.

With B23, binding was characterised by a dissociation constant (Kd) of 9.3 ± 1.4 nM.

Turning to B24, binding was put at a Kd of 9.1 ± 1.6 nM.

In turn, B25 yielded a Kd of 8.7 ± 3.2 nM.

Take B26: the Kd was determined as 5.2 ± 0.9 nM.

Molecule B27 displayed a Kd of 16.6 ± 2.6 nM.

In turn, B28 registered a Kd of 9.9 ± 1.6 nM.

B29 gave a Kd of 6 ± 0.9 nM.

In turn, B30 yielded a dissociation constant (Kd) of 9.6 ± 1.7 nM.

As for B31, the affinity, expressed as Kd, was 15.3 ± 2.4 nM.

The molecule B32 came in with a Kd of 4.9 ± 0.6 nM.

Molecule B33 gave a dissociation constant (Kd) of 18 ± 5 nM.

B34 came in with a Kd of roughly 50 nM.

With B35, the Kd is 6.2 ± 0.7 nM.

The term Kd denotes the free concentration of one partner at which half of the binding sites on the other are occupied at equilibrium, for simple one-to-one binding. Lower therefore signals tighter binding.

The record behind these values is paper PMC10786891, “Massively parallel profiling of RNA-targeting CRISPR-Cas13d”.
